Reference: patent US20180318437A1 (Bayer, published 2018)
Values belong to the binder of their own block, whether it stands above or below them.

Columns and labels:
[1] = biological target: T1, IL-3Ralpha, CD123, on CD123-positive human cancer cell lines (human, UniProt P26951 20-378); assay: flow cytometry on MV-4-11 cells, titration from 10 ug/ml in 1:5 steps, anti-kappa-FITC secondary antibody; MV-4-11 cells
T1 construct: Target of the flow cytometry and internalisation assays; The cell line of each value is named under assay
T1 sequence: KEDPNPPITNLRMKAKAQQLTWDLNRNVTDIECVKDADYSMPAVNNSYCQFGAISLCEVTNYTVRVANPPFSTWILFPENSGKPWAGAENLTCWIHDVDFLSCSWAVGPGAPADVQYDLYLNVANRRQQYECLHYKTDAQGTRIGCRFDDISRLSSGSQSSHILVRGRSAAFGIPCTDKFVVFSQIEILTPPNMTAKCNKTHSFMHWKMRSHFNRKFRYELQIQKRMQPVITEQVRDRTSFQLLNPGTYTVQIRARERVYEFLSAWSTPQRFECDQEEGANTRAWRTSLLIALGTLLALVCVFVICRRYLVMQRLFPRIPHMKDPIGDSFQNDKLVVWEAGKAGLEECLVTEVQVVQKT

[2] = biological target: T2, TPP-5521, recombinant antigen IL3Ra aa20-305 (IL3R3alpha/CD123) (murine (as printed under 'Origin' in …, UniProt P26951 20-305 (human entry))); assay: SPR, Biacore T200, antibody captured by anti-human Fc, IL3Ra (TPP-5521) as analyte 1.56-200 nM, 25 C, 1:1 Langmuir fit
T2 construct: Bought protein; also called IL3Ra protein; extracellular domain of IL3Ra
T2 sequence: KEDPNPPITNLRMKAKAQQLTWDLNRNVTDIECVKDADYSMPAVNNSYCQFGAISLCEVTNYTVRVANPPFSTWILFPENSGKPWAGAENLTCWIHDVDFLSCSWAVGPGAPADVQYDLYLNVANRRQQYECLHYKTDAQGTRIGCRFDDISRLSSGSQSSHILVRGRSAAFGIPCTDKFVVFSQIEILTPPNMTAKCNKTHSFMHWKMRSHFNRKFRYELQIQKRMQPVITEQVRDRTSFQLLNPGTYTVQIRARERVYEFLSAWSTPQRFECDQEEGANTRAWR

- EC50 [1]: 2.6 nM
B1: TPP-5969 (antibody, human IgG1, kappa, V domains shown)
VH: QVQLVQSGAEVKKPGSSVKVSCKASGGTFSDYYMKWVRQAPGQGLEWMGDIIPSNGATFYAQKFQGRVTITADESTSTAYMELSSLRSEDTAVYYCARSHLLRASWFAYWGQGTLVTVSS
VL: DIVMTQSPDSLAVSLGERATINCESSQSLLNSGNQKNYLTWYQQKPGQPPKLLIYWASTRESGVPDRFSGSGSGTDFTLTISSLQAEDVAVYYCQNDYSYPYTFGQGTKLEIKR
notes: Humanized variant of 7G3 made by CDR grafting, human IgG1 kappa; Tested as unconjugated antibody; also called anti-CD123 AK1A; humanized variant of 7G3

- koff [2]: 0.00019 s⁻¹
- kon [2]: 300000 M⁻¹ s⁻¹
B2: TPP-6013 (antibody, human IgG1, kappa, V domains shown)
VH: QVQLQESGPGLVKPSQSLSLTCSVTDYSITSGYYWNWIRQFPGNKLEWMGYISYDGSNNYNPSLKNRISITRDTSKNQFFLKLSSVTTEDTATYYCSRGEGFYFDSWGQGTTLTVSS
VL: DIMMSQSPSSLAVSVGEKFTMTCKSSQSLFFGSTQKNYLAWYQQKPGQSPKLLIYWASTRESGVPDRFTGSGSGTDFTLAISSVMPEDLAVYYCQQYYNYPWTFGGGTKLEIKR
notes: Tested as unconjugated antibody; also called anti-CD123 AK1C; chimeric variant of 12F1
